According to patent US20260185118A1 (priority 2023, published 2026):
Read-outs that look alike come from different tables or passages of the source.

Legend:
bacterial and fungal = conditions: it has been shown; cited from earlier work
[1] = format: biochemical, Citrus sinensis L.Osbeck; conditions: 2 μg protein, 10 μg FPP, 30° C., 30 min
[2] = system: Huanglongbing pathogen CLas; parameters: species or system Candidatus Liberibacter asiaticus; conditions: in vivo
[3] = system: Huanglongbing pathogen CLas; format: in vivo, Candidatus Liberibacter asiaticus; conditions: for disease phenotype: 3 months after grafting infected branches onto transgenic citrus; for pathogen titer versus vector control: qPCR, newborn leaves
[4] = system: Huanglongbing pathogen CLas; format: in vivo, Candidatus Liberibacter asiaticus; conditions: 7 days after feeding of CLas-carrying psyllids, qPCR
CsPUB21 = format: biochemical, Citrus sinensis; conditions: in the presence of E1 (AtUBA1) and E2 (AtUBC8), anti-c-myc immunoblot
[5] = system: terpene synthase CsTPS21 gene cluster; format: in vivo, Valencia orange; conditions: transgenic citrus leaves overexpressing, compared with blank vector control
CsMYC2 [6] = format: binding, Citrus sinensis; conditions: yeast AH109, SD-Leu-Trp-His with 5 mM 3-AT
CsMYC2 [7] = format: cell-based, Citrus sinensis; conditions: tobacco leaves, 2-3 days, cytoplasm and nucleus
CsMYC2 [8] = format: biochemical, Citrus sinensis; conditions: with AtUBA1, AtUBC8 and ubiquitin, anti-MBP immunoblot
CsMYC2 protein = format: cell-based, Citrus sinensis; conditions: tobacco leaves, 35S:CsMYC2-myc co-injected, versus 35S:YFP

C=C1CC/C=C(\C)CC[C@@H]2[C@@H]1CC2(C)C [β-caryophyllene]
bacterial and fungal killing effect (bacterial and fungal): rapid bacterial and fungal killing effect

B1: CsTPS21-7: citrus terpene synthase protein, SEQ ID No. 7, purified as GST fusion protein (protein)
chain: MKDMSIPLLAAVSSSTEETVRPIADFHPTLWGNHFLKSAADVETIDAATQEQHAALKQEVRRMITTTANKLAQKLHMIDAVQRLGVAYHFEKEIEDELGKVSHDLDSDDLYVVSLRFRLFRQQGVKISCDVFDKFKDDEGKFKESLINDIRGMLSLYEAAYLAIRGEDILDEAIVFTTTHLKSVISISDHSHVNSNLAEQIRHSLQIPLRKAAARLEARYFLDIYSRDDLHDETLLKFAKLDFNILQAAHQKEASIMTRTKDISEVDTILGVKVKKHSGERANISIIFDFFRWDIGLIDTLPEYMKFIVKALLDIYREAEEELAKEGRSYGIPYAKQMMQELIILYFTEAKWLYKGYVPTFDEYKSVALRSIGLRTLAVASFVDLGDFIATKDNFECILKNAKSLKATETIGRLMDDIAGYKFEQKRGHNPSAVECYKNQHGVSEEEAVKELLLEVANSWKDINEELLNPTTVPLPMLQRLLYFARSGHFIYDDGHDRYTHSLMMKRQVALLLTEPLAI
modifications: GST fusion tag
7-epi-sesquiterpene share of the total compounds [1]: 4.79±0.11%
(E)-β-farnesene share of the total compounds [1]: 5.54±0.32%
sesquiterpene share of the total compounds [1]: 7.86±0.70%
β-caryophyllene share of the total product [1]: 81.81±0.92%

B2: CsPUB21-Myc (protein)
chain: MILSWKRLRGGRGRRAGKKQPGVESGGEMELTTPNHFRCPISLDLMKDPVTLSTGITYDRENIEKWIHEDGNITCPVTNRVLTSFEPIPNHTIRRMIQDWCVENRSYGIERIPTPRIPVSSVEVFEINCNITTACKSEDQAGCRDLVAKIKKWTKESDRNKRCIVDNGAVSVLAEAFETFSKTCLDENVSVLEEILSTLTLLFPLAGEGLTYLGSASSMRCMVWFLKSGDLSRRRNAVLVLREIVSSDHRKVNVLLDIEGAIEPLFKLIKEPICPTATKASLVVVYRTITSASATEKPIQKFVDMGLVSLLLEMLVDAQRSLCEKALSVLDGLCSSDYGRGDAYNNSLIFPVIVKKILRVSDLATEFAVSILWKLCKNEEREEKTAFAEALQVGAFQKLLLLLQVGCADKTKEHVSELLKLLNPHRARLECIDSMDFKDLKRPF
polyubiquitination of MBP-CsMYC2 (immunoblot with anti-MBP tag antibody; E. coli system with AtUBA1, AtUBC8 and FLAG-UBQ) (MBP-CsMYC2-HA): CsPUB21 is able to effectively polyubiquitinate the CsMYC2 protein in vitro

B3: CsPUB21DN (protein)
chain: MILSWKRLRGGRGRRAGKKQPGVESGGEMELTTPNHFRAPISLDLMKDPVTLSTGITYDRENIEKWIHEDGNITCPVTNRVLTSFEPIPNHTIRRMIQDWCVENRSYGIERIPTPRIPVSSVEVFEINCNITTACKSEDQAGCRDLVAKIKKWTKESDRNKRCIVDNGAVSVLAEAFETFSKTCLDENVSVLEEILSTLTLLFPLAGEGLTYLGSASSMRCMVWFLKSGDLSRRRNAVLVLREIVSSDHRKVNVLLDIEGAIEPLFKLIKEPICPTATKASLVVVYRTITSASATEKPIQKFVDMGLVSLLLEMLVDAQRSLCEKALSVLDGLCSSDYGRGDAYNNSLIFPVIVKKILRVSDLATEFAVSILWKLCKNEEREEKTAFAEALQVGAFQKLLLLLQVGCADKTKEHVSELLKLLNPHRARLECIDSMDFKDLKRPF
modifications: left off: large carriers
concentration of CLas in the susceptible leaves [2]: significantly reduced
disease phenotype [3]: still show a healthy state
pathogen titer versus vector control ([3]; 3 months of infestation): lower pathogen titer than the vector control plants
CLas detection versus vector control plants [4]: significantly lower than that of the vector control plants
Ct values versus healthy plants [4]: no difference in the Ct values

B4: CsPUB21DN-Myc (protein)
chain: MILSWKRLRGGRGRRAGKKQPGVESGGEMELTTPNHFRAPISLDLMKDPVTLSTGITYDRENIEKWIHEDGNITCPVTNRVLTSFEPIPNHTIRRMIQDWCVENRSYGIERIPTPRIPVSSVEVFEINCNITTACKSEDQAGCRDLVAKIKKWTKESDRNKRCIVDNGAVSVLAEAFETFSKTCLDENVSVLEEILSTLTLLFPLAGEGLTYLGSASSMRCMVWFLKSGDLSRRRNAVLVLREIVSSDHRKVNVLLDIEGAIEPLFKLIKEPICPTATKASLVVVYRTITSASATEKPIQKFVDMGLVSLLLEMLVDAQRSLCEKALSVLDGLCSSDYGRGDAYNNSLIFPVIVKKILRVSDLATEFAVSILWKLCKNEEREEKTAFAEALQVGAFQKLLLLLQVGCADKTKEHVSELLKLLNPHRARLECIDSMDFKDLKRPF
polyubiquitination of MBP-CsMYC2 (immunoblot with anti-MBP tag antibody; E. coli system with AtUBA1, AtUBC8 and FLAG-UBQ) (MBP-CsMYC2-HA): CsPUB21DN cannot ubiquitinate CsMYC2

B5: YFP-CsPUB21DN (protein)
chain: MILSWKRLRGGRGRRAGKKQPGVESGGEMELTTPNHFRAPISLDLMKDPVTLSTGITYDRENIEKWIHEDGNITCPVTNRVLTSFEPIPNHTIRRMIQDWCVENRSYGIERIPTPRIPVSSVEVFEINCNITTACKSEDQAGCRDLVAKIKKWTKESDRNKRCIVDNGAVSVLAEAFETFSKTCLDENVSVLEEILSTLTLLFPLAGEGLTYLGSASSMRCMVWFLKSGDLSRRRNAVLVLREIVSSDHRKVNVLLDIEGAIEPLFKLIKEPICPTATKASLVVVYRTITSASATEKPIQKFVDMGLVSLLLEMLVDAQRSLCEKALSVLDGLCSSDYGRGDAYNNSLIFPVIVKKILRVSDLATEFAVSILWKLCKNEEREEKTAFAEALQVGAFQKLLLLLQVGCADKTKEHVSELLKLLNPHRARLECIDSMDFKDLKRPF
accumulated level of the CsMYC2 protein on co-expression in tobacco leaves (immunoblot, anti-c-myc) (CsMYC2-myc): this reduction was inhibited by coexpression of CsPUB21DN

B6: CsPUB21: citrus plant U-box E3 ubiquitin ligase protein, amino acid sequence SEQ ID No. 1; overexpressed in citrus (protein)
chain: MILSWKRLRGGRGRRAGKKQPGVESGGEMELTTPNHFRCPISLDLMKDPVTLSTGITYDRENIEKWIHEDGNITCPVTNRVLTSFEPIPNHTIRRMIQDWCVENRSYGIERIPTPRIPVSSVEVFEINCNITTACKSEDQAGCRDLVAKIKKWTKESDRNKRCIVDNGAVSVLAEAFETFSKTCLDENVSVLEEILSTLTLLFPLAGEGLTYLGSASSMRCMVWFLKSGDLSRRRNAVLVLREIVSSDHRKVNVLLDIEGAIEPLFKLIKEPICPTATKASLVVVYRTITSASATEKPIQKFVDMGLVSLLLEMLVDAQRSLCEKALSVLDGLCSSDYGRGDAYNNSLIFPVIVKKILRVSDLATEFAVSILWKLCKNEEREEKTAFAEALQVGAFQKLLLLLQVGCADKTKEHVSELLKLLNPHRARLECIDSMDFKDLKRPF
E3 ubiquitin ligase activity (auto-ubiquitination) (CsPUB21): has the E3 ubiquitin ligase activity
expression of four CsTPS21 genes (CsTPS21-2, CsTPS21-7, CsTPS21-9, CsTPS21-10) [5]: significantly reduces
interaction with CsMYC2 (yeast two-hybrid) (CsMYC2 [6]): interaction between CsPUB21 and CsMYC2 was confirmed
interaction with CsMYC2 (BiFC) (CsMYC2 [7]): confirmed
polyubiquitination of the CsMYC2 protein in vitro (CsMYC2 [8]): able to effectively polyubiquitinate
accumulated level of the CsMYC2 protein on coexpression (CsMYC2 protein): significantly reduced
pathogen titer versus vector control ([3]; 2 and 3 months of pathogen infestation): significantly higher than that of the vector control
disease phenotype [3]: show disease characteristics of Huanglongbing infection

B7: YFP-CsPUB21 (protein)
chain: MILSWKRLRGGRGRRAGKKQPGVESGGEMELTTPNHFRCPISLDLMKDPVTLSTGITYDRENIEKWIHEDGNITCPVTNRVLTSFEPIPNHTIRRMIQDWCVENRSYGIERIPTPRIPVSSVEVFEINCNITTACKSEDQAGCRDLVAKIKKWTKESDRNKRCIVDNGAVSVLAEAFETFSKTCLDENVSVLEEILSTLTLLFPLAGEGLTYLGSASSMRCMVWFLKSGDLSRRRNAVLVLREIVSSDHRKVNVLLDIEGAIEPLFKLIKEPICPTATKASLVVVYRTITSASATEKPIQKFVDMGLVSLLLEMLVDAQRSLCEKALSVLDGLCSSDYGRGDAYNNSLIFPVIVKKILRVSDLATEFAVSILWKLCKNEEREEKTAFAEALQVGAFQKLLLLLQVGCADKTKEHVSELLKLLNPHRARLECIDSMDFKDLKRPF
accumulated level of the CsMYC2 protein on co-expression in tobacco leaves (immunoblot, anti-c-myc) (CsMYC2-myc): the accumulated level of the CsMYC2 protein and coexpression of CsPUB21 were significantly reduced
